We go through one substance from patent EP1257175B1.

Assay in all cases: cell-based or functional assay
In experiment [1] the target is protease derived from Aspergillus sp. CBS 102448.
Experiment [2] deals with protease derived from Bacillus alcalophilus NCIMB 10438 (Bacillus alcalophilus NCIMB 10438).
For experiment [3], the target named is protease derived from Bacillus sp. NCIMB 40484 (Bacillus sp. NCIMB 40484).
Experiment [4] concerns the target protease derived from Paecilomyces lilacinus CBS 102449 (Paecilomyces lilacinus CBS 102449).
Experiment [5] deals with protease derived from Fusarium oxysporum IFO 4471 (Fusarium oxysporum IFO 4471).
Experiment [6] has as its target protease derived from Acremonium chrysogenum ATCC 48272 (Acremonium chrysogenum ATCC 48272).
The target in experiment [7] is Sub.Novo(Y217L), mutant of subtilisin from Bacillus amyloliquefaciens (Bacillus amyloliquefaciens) (UniProt P00782).
The target in experiment [8] is Sub.Novo, subtilisin from Bacillus amyloliquefaciens (Bacillus amyloliquefaciens) (UniProt P00782).
Experiment [9] addresses SAVINASE, subtilisin derived from Bacillus clausii (previously Bacillus lentus NCIB 10309) (Bacillus clausii (previously Bacillus lentus NCIB 10309)) (UniProt P29600).

On to “Streptomyces Subtilisin Inhibitor (SSI) (from UniProt P01006 32-144)”, for which the Residual activity (%) turned out to be 0.1% in experiment [1]; 0% in [2]; 4.3% in experiment [3]; 0.1% in experiment [4]; 0.1% in experiment [5]; 0.1% in [6]. Also, the Residual activity (%) in experiment [7] worked out at 0%; in [8], 0.1%; in experiment [9], 0%.
